Measured values reported in publication PMC2720833.

Biological target: GST-Cullin5 (NTD), N-terminal domain of murine cullin5 (Met1-Leu385) with V341R and L345D (murine) (UniProt Q9D5V5)
Assay: SPR

GST-Cullin5 (NTD), N-terminal domain of murine cullin5 (Met1-Leu385) with V341R and L345D (murine), sequence (Q9D5V5 1-385 V341R/L345D): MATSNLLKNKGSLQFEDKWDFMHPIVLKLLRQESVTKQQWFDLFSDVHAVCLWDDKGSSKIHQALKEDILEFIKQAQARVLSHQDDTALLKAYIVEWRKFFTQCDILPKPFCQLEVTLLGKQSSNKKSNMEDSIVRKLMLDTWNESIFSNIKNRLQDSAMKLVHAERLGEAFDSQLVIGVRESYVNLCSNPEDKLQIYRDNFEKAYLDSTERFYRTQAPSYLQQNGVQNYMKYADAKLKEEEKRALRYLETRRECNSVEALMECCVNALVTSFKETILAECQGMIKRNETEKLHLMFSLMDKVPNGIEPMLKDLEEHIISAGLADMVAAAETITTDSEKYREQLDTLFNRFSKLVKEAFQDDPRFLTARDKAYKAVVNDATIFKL

KD by Biacore relative to KD by ITC (fold): 4 fold
half-life of the complex: 10 s
Substance: SOCS3 box/elonginBC ternary complex (from UniProt Q15370 1-118; P83940 17-112)
